Data reported in patent US20260015399A1 (Boehringer Ingelheim, published 2026).
*1 amine or outer side, *2 acyl side, *3 side chain or, on linkers, in order; H or OH if unused. Side-chain parts run from the residue outwards. The star is where a group is joined. C18 diacid = O=C(O)CCCCCCCCCCCCCCCCC(=O)*; γGlu = O=C(O)[C@H](CCC(=O)[*:2])N[*:1]; Isovaleryl = CC(C)CC(=O)*; Ahx = NCCCCCC(=O)O

Target: T1, human NPY2 receptor (human, UniProt P49146 1-381)
T1 construct: whole, on cells; also called hNPY2-R; hNPY2R
T1 sequence (looked up): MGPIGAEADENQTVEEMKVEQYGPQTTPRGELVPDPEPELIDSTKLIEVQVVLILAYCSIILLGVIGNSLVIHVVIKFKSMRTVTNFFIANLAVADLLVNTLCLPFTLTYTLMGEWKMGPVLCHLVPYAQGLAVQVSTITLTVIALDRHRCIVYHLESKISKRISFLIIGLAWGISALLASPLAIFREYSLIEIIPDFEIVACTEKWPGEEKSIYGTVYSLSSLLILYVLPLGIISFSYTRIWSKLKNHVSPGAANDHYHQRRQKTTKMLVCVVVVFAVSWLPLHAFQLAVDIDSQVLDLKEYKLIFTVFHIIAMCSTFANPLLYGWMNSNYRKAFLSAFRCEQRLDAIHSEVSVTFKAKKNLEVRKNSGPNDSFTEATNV
Test: RLB: displacement of 125I-PYY(1-36) from hNPY2R membranes

| Binder | Ki |
| --- | --- |
| Isovaleryl-APEK([Ahx-γGlu-C18 diacid])PEEDATPEELQAYYVSLRHYYNWLTRQRY-NH2 (SMILES CC(C)CC(=O)N[C@@H](C)C(=O)N1CCC[C@H]1C(=O)N[C@@H](CCC(=O)O)C(=O)N[C@@H](CCCCNC(=O)CCCCCNC(=O)CC[C@H](NC(=O)CCCCCCCCCCCCCCCCC(=O)O)C(=O)O)C(=O)N1CCC[C@H]1C(=O)N[C@@H](CCC(=O)O)C(=O)N[C@@H](CCC(=O)O)C(=O)N[C@@H](CC(=O)O)C(=O)N[C@@H](C)C(=O)N[C@H](C(=O)N1CCC[C@H]1C(=O)N[C@@H](CCC(=O)O)C(=O)N[C@@H](CCC(=O)O)C(=O)N[C@@H](CC(C)C)C(=O)N[C@@H](CCC(N)=O)C(=O)N[C@@H](C)C(=O)N[C@@H](Cc1ccc(O)cc1)C(=O)N[C@@H](Cc1ccc(O)cc1)C(=O)N[C@H](C(=O)N[C@@H](CO)C(=O)N[C@@H](CC(C)C)C(=O)N[C@@H](CCCNC(=N)N)C(=O)N[C@@H](Cc1c[nH]cn1)C(=O)N[C@@H](Cc1ccc(O)cc1)C(=O)N[C@@H](Cc1ccc(O)cc1)C(=O)N[C@@H](CC(N)=O)C(=O)N[C@@H](Cc1c[nH]c2ccccc12)C(=O)N[C@@H](CC(C)C)C(=O)N[C@H](C(=O)N[C@@H](CCCNC(=N)N)C(=O)N[C@@H](CCC(N)=O)C(=O)N[C@@H](CCCNC(=N)N)C(=O)N[C@@H](Cc1ccc(O)cc1)C(N)=O)[C@@H](C)O)C(C)C)[C@@H](C)O) [Compound 95] | 2.92 nM |
| Isovaleryl-APEK([Ahx-γGlu-C18 diacid])PEESATPEELQRYYVSLRHYYNWLTRQRY-NH2 (SMILES CC(C)CC(=O)N[C@@H](C)C(=O)N1CCC[C@H]1C(=O)N[C@@H](CCC(=O)O)C(=O)N[C@@H](CCCCNC(=O)CCCCCNC(=O)CC[C@H](NC(=O)CCCCCCCCCCCCCCCCC(=O)O)C(=O)O)C(=O)N1CCC[C@H]1C(=O)N[C@@H](CCC(=O)O)C(=O)N[C@@H](CCC(=O)O)C(=O)N[C@@H](CO)C(=O)N[C@@H](C)C(=O)N[C@H](C(=O)N1CCC[C@H]1C(=O)N[C@@H](CCC(=O)O)C(=O)N[C@@H](CCC(=O)O)C(=O)N[C@@H](CC(C)C)C(=O)N[C@@H](CCC(N)=O)C(=O)N[C@@H](CCCNC(=N)N)C(=O)N[C@@H](Cc1ccc(O)cc1)C(=O)N[C@@H](Cc1ccc(O)cc1)C(=O)N[C@H](C(=O)N[C@@H](CO)C(=O)N[C@@H](CC(C)C)C(=O)N[C@@H](CCCNC(=N)N)C(=O)N[C@@H](Cc1c[nH]cn1)C(=O)N[C@@H](Cc1ccc(O)cc1)C(=O)N[C@@H](Cc1ccc(O)cc1)C(=O)N[C@@H](CC(N)=O)C(=O)N[C@@H](Cc1c[nH]c2ccccc12)C(=O)N[C@@H](CC(C)C)C(=O)N[C@H](C(=O)N[C@@H](CCCNC(=N)N)C(=O)N[C@@H](CCC(N)=O)C(=O)N[C@@H](CCCNC(=N)N)C(=O)N[C@@H](Cc1ccc(O)cc1)C(N)=O)[C@@H](C)O)C(C)C)[C@@H](C)O) [Compound 96] | 3.06 nM |
| Isovaleryl-APEK([Ahx-γGlu-C18 diacid])PEEDATPEEIQRYYLSLRHYYNWLTRQRY-NH2 (SMILES CC[C@H](C)[C@H](NC(=O)[C@H](CCC(=O)O)NC(=O)[C@H](CCC(=O)O)NC(=O)[C@@H]1CCCN1C(=O)[C@@H](NC(=O)[C@H](C)NC(=O)[C@H](CC(=O)O)NC(=O)[C@H](CCC(=O)O)NC(=O)[C@H](CCC(=O)O)NC(=O)[C@@H]1CCCN1C(=O)[C@H](CCCCNC(=O)CCCCCNC(=O)CC[C@H](NC(=O)CCCCCCCCCCCCCCCCC(=O)O)C(=O)O)NC(=O)[C@H](CCC(=O)O)NC(=O)[C@@H]1CCCN1C(=O)[C@H](C)NC(=O)CC(C)C)[C@@H](C)O)C(=O)N[C@@H](CCC(N)=O)C(=O)N[C@@H](CCCNC(=N)N)C(=O)N[C@@H](Cc1ccc(O)cc1)C(=O)N[C@@H](Cc1ccc(O)cc1)C(=O)N[C@@H](CC(C)C)C(=O)N[C@@H](CO)C(=O)N[C@@H](CC(C)C)C(=O)N[C@@H](CCCNC(=N)N)C(=O)N[C@@H](Cc1c[nH]cn1)C(=O)N[C@@H](Cc1ccc(O)cc1)C(=O)N[C@@H](Cc1ccc(O)cc1)C(=O)N[C@@H](CC(N)=O)C(=O)N[C@@H](Cc1c[nH]c2ccccc12)C(=O)N[C@@H](CC(C)C)C(=O)N[C@H](C(=O)N[C@@H](CCCNC(=N)N)C(=O)N[C@@H](CCC(N)=O)C(=O)N[C@@H](CCCNC(=N)N)C(=O)N[C@@H](Cc1ccc(O)cc1)C(N)=O)[C@@H](C)O) [Compound 97] | 4.23 nM |
| Isovaleryl-APEK([Ahx-γGlu-C18 diacid])PEADATPEELQRYYIALRHYYNWLTRQRY-NH2 (SMILES CC[C@H](C)[C@H](NC(=O)[C@H](Cc1ccc(O)cc1)NC(=O)[C@H](Cc1ccc(O)cc1)NC(=O)[C@H](CCCNC(=N)N)NC(=O)[C@H](CCC(N)=O)NC(=O)[C@H](CC(C)C)NC(=O)[C@H](CCC(=O)O)NC(=O)[C@H](CCC(=O)O)NC(=O)[C@@H]1CCCN1C(=O)[C@@H](NC(=O)[C@H](C)NC(=O)[C@H](CC(=O)O)NC(=O)[C@H](C)NC(=O)[C@H](CCC(=O)O)NC(=O)[C@@H]1CCCN1C(=O)[C@H](CCCCNC(=O)CCCCCNC(=O)CC[C@H](NC(=O)CCCCCCCCCCCCCCCCC(=O)O)C(=O)O)NC(=O)[C@H](CCC(=O)O)NC(=O)[C@@H]1CCCN1C(=O)[C@H](C)NC(=O)CC(C)C)[C@@H](C)O)C(=O)N[C@@H](C)C(=O)N[C@@H](CC(C)C)C(=O)N[C@@H](CCCNC(=N)N)C(=O)N[C@@H](Cc1c[nH]cn1)C(=O)N[C@@H](Cc1ccc(O)cc1)C(=O)N[C@@H](Cc1ccc(O)cc1)C(=O)N[C@@H](CC(N)=O)C(=O)N[C@@H](Cc1c[nH]c2ccccc12)C(=O)N[C@@H](CC(C)C)C(=O)N[C@H](C(=O)N[C@@H](CCCNC(=N)N)C(=O)N[C@@H](CCC(N)=O)C(=O)N[C@@H](CCCNC(=N)N)C(=O)N[C@@H](Cc1ccc(O)cc1)C(N)=O)[C@@H](C)O) [Compound 100] | 1.01 nM |
| Isovaleryl-APEK([Ahx-γGlu-C18 diacid])PEEDATLEELQRYYVSLRHYYNWLTRQRY-NH2 (SMILES CC(C)CC(=O)N[C@@H](C)C(=O)N1CCC[C@H]1C(=O)N[C@@H](CCC(=O)O)C(=O)N[C@@H](CCCCNC(=O)CCCCCNC(=O)CC[C@H](NC(=O)CCCCCCCCCCCCCCCCC(=O)O)C(=O)O)C(=O)N1CCC[C@H]1C(=O)N[C@@H](CCC(=O)O)C(=O)N[C@@H](CCC(=O)O)C(=O)N[C@@H](CC(=O)O)C(=O)N[C@@H](C)C(=O)N[C@H](C(=O)N[C@@H](CC(C)C)C(=O)N[C@@H](CCC(=O)O)C(=O)N[C@@H](CCC(=O)O)C(=O)N[C@@H](CC(C)C)C(=O)N[C@@H](CCC(N)=O)C(=O)N[C@@H](CCCNC(=N)N)C(=O)N[C@@H](Cc1ccc(O)cc1)C(=O)N[C@@H](Cc1ccc(O)cc1)C(=O)N[C@H](C(=O)N[C@@H](CO)C(=O)N[C@@H](CC(C)C)C(=O)N[C@@H](CCCNC(=N)N)C(=O)N[C@@H](Cc1c[nH]cn1)C(=O)N[C@@H](Cc1ccc(O)cc1)C(=O)N[C@@H](Cc1ccc(O)cc1)C(=O)N[C@@H](CC(N)=O)C(=O)N[C@@H](Cc1c[nH]c2ccccc12)C(=O)N[C@@H](CC(C)C)C(=O)N[C@H](C(=O)N[C@@H](CCCNC(=N)N)C(=O)N[C@@H](CCC(N)=O)C(=O)N[C@@H](CCCNC(=N)N)C(=O)N[C@@H](Cc1ccc(O)cc1)C(N)=O)[C@@H](C)O)C(C)C)[C@@H](C)O) [Compound 102] | 7.15 nM |
| Isovaleryl-APEK([Ahx-γGlu-C18 diacid])PEEDATQEELQRYYVSLRHYYNWLTRQRY-NH2 (SMILES CC(C)CC(=O)N[C@@H](C)C(=O)N1CCC[C@H]1C(=O)N[C@@H](CCC(=O)O)C(=O)N[C@@H](CCCCNC(=O)CCCCCNC(=O)CC[C@H](NC(=O)CCCCCCCCCCCCCCCCC(=O)O)C(=O)O)C(=O)N1CCC[C@H]1C(=O)N[C@@H](CCC(=O)O)C(=O)N[C@@H](CCC(=O)O)C(=O)N[C@@H](CC(=O)O)C(=O)N[C@@H](C)C(=O)N[C@H](C(=O)N[C@@H](CCC(N)=O)C(=O)N[C@@H](CCC(=O)O)C(=O)N[C@@H](CCC(=O)O)C(=O)N[C@@H](CC(C)C)C(=O)N[C@@H](CCC(N)=O)C(=O)N[C@@H](CCCNC(=N)N)C(=O)N[C@@H](Cc1ccc(O)cc1)C(=O)N[C@@H](Cc1ccc(O)cc1)C(=O)N[C@H](C(=O)N[C@@H](CO)C(=O)N[C@@H](CC(C)C)C(=O)N[C@@H](CCCNC(=N)N)C(=O)N[C@@H](Cc1c[nH]cn1)C(=O)N[C@@H](Cc1ccc(O)cc1)C(=O)N[C@@H](Cc1ccc(O)cc1)C(=O)N[C@@H](CC(N)=O)C(=O)N[C@@H](Cc1c[nH]c2ccccc12)C(=O)N[C@@H](CC(C)C)C(=O)N[C@H](C(=O)N[C@@H](CCCNC(=N)N)C(=O)N[C@@H](CCC(N)=O)C(=O)N[C@@H](CCCNC(=N)N)C(=O)N[C@@H](Cc1ccc(O)cc1)C(N)=O)[C@@H](C)O)C(C)C)[C@@H](C)O) [Compound 105] | 5.97 nM |
